Biological target: Acanthamoeba myosin-II (Acanthamoeba)
Assay: electron microscopy

For Acanthamoeba myosin-II (complex), the stoichiometry N was 8.

From article PMC2116414
